{
  "source": "patent US6753157B2",
  "about": "“Quantitation of individual protein kinase activity” (Promega Corporation, priority 1994, dated 2004)",
  "key": {"[1]": {"tested_on": "T1, biotinylated neurogranin(28-43) (Promega Peptide B, *-Ala-Ala-Lys-Ile-Gln-Ala-Ser-Phe-Arg-Gly-His-Met-Ala-Arg-Lys-Lys)", "T1 sequence": "AAKIQASFRGHMARKK"}, "[2]": {"tested_on": "T2, biotinylated Promega Peptide A (*-Leu-Arg-Arg-Ala-Ser-Leu-Gly)", "T2 sequence": "LRRASLG"}, "[3]": {"tested_on": "Ca2+ and phospholipid dependent protein kinase (PKC)", "assay": "Protein kinase activity of Ca2+ and phospholipid dependent protein kinase with biotinylated neurogranin(28-43), streptavidin-linked disk, 32P", "type": "biochemical", "protocol": "The protein kinase activity of Ca^2+ and phospholipid dependent protein kinase activity (PKC) was determined in a similar manner to that of PKA described above, except that the biotinylated peptide substrate was a derivative of neurogranin; namely, biotinylated neurogranin(28-43) Chen, S-J, et al., 1993.\nThe peptide was modified by the addition of biotin containing moiety: *-Ala-Ala-Lys-Ile-Gln-Ala-Ser-Phe-Arg-Gly-His-Met-Ala-Arg-Lys-Lys (Promega Peptide B, SEQ. ID. 2, Mol.Wt. is 2139.6), and was used at a concentration of 100 μM. The enzyme (#V5261, Promega Corporation) was diluted 5× in 100 μg/ml of BSA.\nThe kinase activity of the […] was determined in a reaction volume of 50 μL consisting of 40 mM Tris. HCl, pH 7.4, 10 mM MgCl2, BSA at 100 μg/ml, and 100 μM of τ-^32P-ATP (sp.act. of 100 cpm/pmol). The activity was determined in the presence and absence of 100 μg/ml of phosphatidylserine, 10 μg/ml of diacylglycerol and 0.4 mM calcium chloride. Reaction was started with the addition of 5 μL of the enzyme and incubated at 25° C. After specified periods of time, reactions were terminated by the addition of 10 μL of terminating solution (see above). Twenty-five μL aliquots were aliquoted on disks and the disks were processed as described above for PKA."}, "[4]": {"target": "T3, cAMP-dependent protein kinase (PKA) (Bos taurus, UniProt P00517)", "T3 construct": "V5161 (general description)", "assay": "Kinase activity of cAMP-dependent protein kinase with biotinylated peptide substrate, streptavidin-linked disk, 32P", "type": "biochemical", "conditions": "PKA 2 Kemptide units per reaction, 100 μM ATP, 37° C., FIG. 3", "protocol": "The kinase activity of cAMP-dependent protein kinase (PKA) was carried out in duplicates at each of the various peptide substrate concentrations, in a reaction volume (50 μL) containing 40 mM Tris HCl, pH 7.4, 20 mM MgCl2, 100 μM τ-^32P-ATP (sp.act.of 100-200 cpm/pmol), 100 μg/ml of bovine serum albumin (BSA), and the appropriate biotinylated peptide substrate: *-Leu-Arg-Arg-Ala-Ser-Leu-Gly (Promega Peptide A, SEQ. ID. 1, M.Wt of 998.4).\nThe reaction was started by addition of the appropriate amount of enzyme (Promega #V5221) to give 2 Kemptide units and incubated for 0, 5, and 10 minutes at 37° C. (one Kemptide unit is defined as the amount of enzyme required to catalyze the incorporation of 1 pmol of phosphate into Kemptide substrate in 1 minute). At specified periods of time at the appropriate temperature, the reaction was terminated with the addition of 10 μL of terminating solution as described above.\nTwenty-five μL aliquots were withdrawn and spotted in a 12.5 mm (i.d.) streptavidin-linked disk (0.5 mg of streptavidin/disk) and placed in 2M NaCl-containing beaker. After one minute of gently swirling the beaker at room temperature, fresh NaCl was added. This washing procedure was repeated 5 more times at one minute each. […]\nEnzyme activity was calculated by determining the radioactivity via liquid scintillation spectrometry. […]"}},
  "note": "Ends that are not written are not given here. * marks the point of attachment. biotin C6 = biotin C6 moiety, O=C(CCCC[C@@H]1SC[C@@H]2NC(=O)N[C@@H]21)NCCCCCC(=O)*",
  "data": [
    {"substance": "Ca2+ and phospholipid dependent protein kinase (PKC) (#V5261, Promega Corporation)", "values": [
      {"measurement": "substrate concentration at which kinase activity reached a maximum", "setting": "[1]", "value": "the activity of the enzyme reached a maximum around 100 µM of modified substrate"}
    ]},
    {"substance": "cAMP-dependent protein kinase (PKA), purified enzyme (Promega #V5221)", "values": [
      {"measurement": "Km (kinase activity, 32P incorporation into biotinylated peptide captured on streptavidin disks)", "setting": "[2]", "value": "a Km Value for the substrate of 33 µM"}
    ]},
    {"substance": "*-Ala-Ala-Lys-Ile-Gln-Ala-Ser-Phe-Arg-Gly-His-Met-Ala-Arg-Lys-Lys ({biotin C6}-AAKIQASFRGHMARKK) [Promega Peptide B, N-terminal Biotin C6 neurogranin-derived peptide substrate for PKC]", "values": [
      {"measurement": "substrate concentration at which enzyme activity reached a maximum", "setting": "[3]; PKC, 25° C., FIG. 7", "value": "around 100 μM"},
      {"measurement": "PKC activity relative to activity assayed with the phosphocellulose paper method", "setting": "[3]; biotinylated substrate/streptavidin matrix versus unmodified peptide/phosphocellulose paper", "value": "6-7 fold"}
    ]},
    {"substance": "*-Leu-Arg-Arg-Ala-Ser-Leu-Gly ({biotin C6}-LRRASLG) [Promega Peptide A, N-terminal Biotin C6 peptide substrate for PKA]", "values": [
      {"measurement": "Km", "setting": "[4]", "value": 33, "unit": "µM"},
      {"measurement": "Vmax value", "setting": "[4]", "value": 1.45, "unit": "pmol/min"}
    ]}
  ]
}
